Measurements from patent publication US20250136687A1 (SHANDONG SIMCERE BIOPHARMACEUTICAL, published 2025).

How the values were obtained:
[1] = molecular target: T1, human CD3 on the cell surface (Jurkat cells, expanded human T cells, Jurkat-Lucia NFAT cells, human PBMC) (human, UniProt P07766 23-207; P04234 22-171; P09693 23-182); test: FACS, Jurkat cells, hybridoma screening
T1 construct: whole, on cells; Endogenous CD3 within the TCR-CD3 complex on cells (also zeta chains and TCR); the cell type is named under assay
T1 sequence (P07766 23-207, chain 1 of 3): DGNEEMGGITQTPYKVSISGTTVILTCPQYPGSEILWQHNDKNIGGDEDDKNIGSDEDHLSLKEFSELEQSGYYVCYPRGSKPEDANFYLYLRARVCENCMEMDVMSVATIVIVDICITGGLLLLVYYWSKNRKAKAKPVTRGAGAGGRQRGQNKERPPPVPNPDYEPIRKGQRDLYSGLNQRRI
T1 sequence (P04234 22-171, chain 2 of 3): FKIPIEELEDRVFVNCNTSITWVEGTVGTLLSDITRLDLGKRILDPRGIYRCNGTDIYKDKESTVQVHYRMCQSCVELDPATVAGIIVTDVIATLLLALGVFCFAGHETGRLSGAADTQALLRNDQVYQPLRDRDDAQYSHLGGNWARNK
T1 sequence (P09693 23-182, chain 3 of 3): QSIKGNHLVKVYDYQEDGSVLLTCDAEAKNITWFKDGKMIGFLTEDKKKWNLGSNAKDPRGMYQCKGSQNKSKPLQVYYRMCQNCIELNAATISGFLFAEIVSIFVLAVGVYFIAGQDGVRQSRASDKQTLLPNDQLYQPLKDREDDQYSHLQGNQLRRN
Protocol: (§1) Suspension cells Jurkat cells (purchased from Cell bank of Chinese Academy of Sciences) were scale-up cultured in T-175 cell culture flasks to the logarithmic growth phase, the supernatant of the medium was discarded by centrifugation, and the cell pellet was washed 2 times with PBS. After counting the cells in the previous step, the cell pellet was resuspended with [PBS+2% (w/v) FBS] blocking solution to 4×10⁶ cells/ml, and added to a 96-well FACS reaction plate at 50 μl/well, the supernatant was removed by centrifugation, detection antibodies (initial concentration of […], gradient dilution at 1:5) and an IgG negative control were added at 100 μl/well, the cells were uniformly mixed, and incubated on ice for 1 h. The cells were centrifuged and washed 3 times with a PBS buffer. […] The cells were centrifuged and washed 5 times with a PBS buffer, and FACS (FACS Canto II, purchased from BD Company) was used for detection and result analysis. Data analysis was performed by software (CellQuest) to obtain the mean fluorescence intensity (MFI) of the cells. And then software (GraphPad Prism8) was used for analysis, data fitting, and EC50 value calculation.
(§2) The binding of the supernatant of the hybridoma to human CD3ε/δ-His (purchased from Sino Biological, Inc. (China), catalog number: CT038-H2508H) and monkey CD3ε/δ-His (purchased from Acrobiosystems, CDD-C52W4) was detected by ELISA for the screening of the supernatant of the hybridoma (see Example 10.1 below). The binding of the supernatant of the ELISA positive hybridoma clone to Jurkat cells and monkey T cells was detected by flow cytometry, and the activation of Jurkat-Lucia NFAT cells (purchased from InvivoGen, catalog number: jktl-nfat) by the supernatant of the hybridoma was detected by a reporter gene system (see Example 2.1, Example 2.4 and Example 7.1 below for the method).

[2] = molecular target: T2, cynomolgus monkey CD3 on the surface of expanded monkey T cells (cynomolgus monkey, UniProt Q95LI5 22-198; Q95LI8 22-171; Q95LI7 23-181); test: FACS, monkey T cells, hybridoma screening
T2 construct: whole, on cells; Endogenous CD3 within the TCR-CD3 complex on T cells expanded from cynomolgus monkey PBMC
T2 sequence (Q95LI5 22-198, chain 1 of 3): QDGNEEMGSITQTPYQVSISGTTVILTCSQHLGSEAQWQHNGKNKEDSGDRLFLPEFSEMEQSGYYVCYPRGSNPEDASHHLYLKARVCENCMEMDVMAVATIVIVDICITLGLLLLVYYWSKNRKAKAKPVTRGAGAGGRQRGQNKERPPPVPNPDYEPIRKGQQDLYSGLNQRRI
T2 sequence (Q95LI8 22-171, chain 2 of 3): as the sequence (P04234 22-171, chain 2 of 3) above, with I5V, N15K, I20V, S32T, D33N, I34N, T64A, S74N, V83L, H141R counted along it
T2 sequence (Q95LI7 23-181, chain 3 of 3): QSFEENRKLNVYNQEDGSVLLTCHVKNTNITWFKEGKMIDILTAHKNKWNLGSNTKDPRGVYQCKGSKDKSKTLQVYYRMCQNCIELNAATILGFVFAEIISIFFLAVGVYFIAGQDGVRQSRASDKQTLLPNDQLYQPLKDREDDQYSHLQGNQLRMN
Protocol: as §1, §2

[3] = molecular target: T1, human CD3 on the cell surface (Jurkat …); test: cell-based or functional assay
monkey CD3ε/δ-His = molecular target: T3, monkey CD3ε/δ-His (monkey, UniProt Q95LI5 22-117; Q95LI8 22-105); test: ELISA, coated antigen, hybridoma screening
T3 construct: Bought recombinant heterodimer with His tag
T3 sequence (Q95LI5 22-117, stated change not applied, form in doubt, chain 1 of 2): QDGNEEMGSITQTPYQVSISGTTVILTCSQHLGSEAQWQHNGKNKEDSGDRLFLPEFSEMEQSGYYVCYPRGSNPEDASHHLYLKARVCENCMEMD
T3 sequence (Q95LI8 22-105, stated change not applied, form in doubt, chain 2 of 2): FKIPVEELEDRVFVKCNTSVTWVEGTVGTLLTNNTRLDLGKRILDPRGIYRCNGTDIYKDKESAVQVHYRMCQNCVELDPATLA
Source text: as §2
(§3) To detect the binding activity of the humanized antibodies to CD3 protein, CD3 protein was diluted with PBS to the final concentration of […], then added to a 96-well ELISA plate at 50 μL/well, and the plate was sealed with a plastic film, and incubated overnight at 4° C. On the next day, the plate was washed 2 times with PBS, and a blocking solution [PBS+2% (v/v) BSA] was added for blocking at room temperature for 2 h. The blocking solution was poured off, and the antibody (initial concentration of 100 nM, and gradient dilution at 1:10) or a negative control antibody was added at 50 µl/well. After incubation at 37° C. for 2 h, the plate was washed 3 times with PBS. […] TMB substrate was added at 50 μl/well, and incubated at room temperature for 10 min, and then a stop solution (1.0 N HCl) was added at 50 μl/well. The OD450 nm values were read by an ELISA microplate reader (Multimode Plate Reader, EnSight, purchased from Perkin Elmer).

human CD3ε/δ-His = molecular target: T4, human CD3ε/δ-His (human, UniProt P07766 23-126; P04234 22-105); test: ELISA, coated antigen, hybridoma screening
T4 construct: Bought recombinant heterodimer with His tag; also called human CD3ε/δ protein
T4 sequence (P07766 23-126, stated change not applied, form in doubt, chain 1 of 2): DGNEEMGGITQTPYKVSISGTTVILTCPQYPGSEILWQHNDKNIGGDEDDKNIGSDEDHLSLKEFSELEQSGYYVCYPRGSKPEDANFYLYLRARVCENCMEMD
T4 sequence (P04234 22-105, stated change not applied, form in doubt, chain 2 of 2): as the sequence (Q95LI8 22-105, stated change not applied, form in doubt, chain 2 of 2) above, with V5I, K15N, V20I, T32S, N33D, N34I, A64T, N74S, L83V counted along it
Source text: as §2, §3

Binder	Mean fluorescence intensity [1]	Mean fluorescence intensity [2]	Reporter assay (RLU), Jurkat-Lucia NFAT, supernatant diluted by 4 times [3]	Reporter assay (RLU), Jurkat-Lucia NFAT, supernatant diluted by 20 times [3]	OD450 (monkey CD3ε/δ-His)	OD450 (human CD3ε/δ-His)
7-35.6 murine hybridoma antibody (supernatant) (antibody, V domains shown, Tested as hybridoma supernatant) VH: EVQLVESGGGLVQPKGSLKLSCAASGFTFNTYAMNWVRQAPGKGLEWVGRIRSKINNYATYYGDSVKDRFTISRDDSQSMFYLQMNNLKTEDTAMYYCVIHENYGSISWFAYWGQGTLVTVSA VL: QAVVTQESTLTTSPGETVTLTCRSSTGAVTTSNYANWVQEKPDHLFTGLIGGTNNRAPGVPARFSGSLIGDKAALTITGAQTEDEAIYFCALWYSNHWVFGGGTKLTVL	284 MFI	1650 MFI	27400 RLU	14800 RLU	1.46 OD450	1.56 OD450
5-7.13 murine hybridoma antibody (supernatant) (antibody, V domains shown, Tested as hybridoma supernatant) VH: QVQLQQPGTELVKPGASVKLSCKASGYTFTSYWVHWVKQRPGQGLEWIGNINPSDGVTNYNEKFKSRATLTVDKSSSTAYMQLSSLTSEDSAVYYCTRDAYGQYYFDDWGQGTTLTVSS VL: DIVMSQSPSSLVVSAGEKVTMSCKSSQSLLNSRTRKNYLAWYQQKPGQSPKLLIYWASVRDSGVPDRFTGSGSGTDFTLTISNVQAEDLAVYYCIQSYYLRTFGGGTILEIK	8280 MFI	16300 MFI	24500 RLU	27800 RLU	2.09 OD450	2.08 OD450
1-22.6 murine hybridoma antibody (supernatant) (antibody, V domains shown, Tested as hybridoma supernatant) VH: QIPLVQSGPELKKPGETVKISCKTSGYTFTSYGMSWVKQAPGKGLKWMGWINTYSGVPTYADDFKGRFVFSLDTSASTAFLQINNLKNEDTATYFCARLKNNPFCWGQGSTLTVFS VL: DVLMTQSPLSLPVRLGDQASISCRSSQLILHSNGNTYLEWYLQKPGQSPKLLIYKVSNRFSGVPDRFSGSGSGTDFTLKISRVEAEDLGVYYCFQGSHFPWTFGGGTKLEIK	767 MFI	20800 MFI	16000 RLU	8890 RLU	3.08 OD450	2.17 OD450
8-18.1 murine hybridoma antibody (supernatant) (antibody, V domains shown, Tested as hybridoma supernatant) VH: QVQLQQSGAELARPGASVKMSCKASGYIFTMNTMHWVKQRPGQGLEWIGYINPYSGYTKYNQIFKDKATLTADKSSSTAYMRLSSLTSEDSAVYYCLRGGEGVWGQGTTLTVSS VL: not shown	895 MFI	3100 MFI	27000 RLU	17800 RLU	2.14 OD450	2.04 OD450

Further lines, results first:

Mean fluorescence intensity [1]	Mean fluorescence intensity [2]	Reporter assay (RLU), Jurkat-Lucia NFAT, supernatant diluted by 4 times [3]	Reporter assay (RLU), Jurkat-Lucia NFAT, supernatant diluted by 20 times [3]	OD450 (monkey CD3ε/δ-His)	OD450 (human CD3ε/δ-His)	Binder
6910 MFI	15200 MFI	18900 RLU	15600 RLU	1.82 OD450	2.15 OD450	5-40.21 murine hybridoma antibody (supernatant) (antibody, V domains shown, Tested as hybridoma supernatant) VH: QVQLQQPGSELVRPGASVKLSCKASGYTFTSYWMHWVKQRPGQGLEWIGNTYPGSGSTNYDEKFKSKATLTVDSSSSTAYMQLSSLTSEDSAVYYCTRDRYGVYYFDYWGQGTTLTVSS VL: DIVMSQSPSSLAVSAGEKVTMSCKSSQSLLNSRTRKNYLAWYQQKPGQSPKLLIYWASTRESGVPDRFSGSGSGTDFTLTISSVQAEDLAVYYCTQSYNLRTFGGGTKLEIK
7240 MFI	36200 MFI	26200 RLU	21400 RLU	1.94 OD450	2.06 OD450	6-44.5 murine hybridoma antibody (supernatant) (antibody, V domains shown, Tested as hybridoma supernatant) VH: EVQLQQSGPELVKPGASVKMSCKASGHTFTSHIMHWVKQKPGQGLEWIGYINPNNDRTEYSEKFKGKATLTSDKSSSTAYMELSSLTSEDSAVYYCAGEAYYSNSLYAMDYWGQGTSVTVSS VL: DIVMSQSPSSLAVSAGEKVTMSCKSSQSLFNSRTRKNYLAWYQQKPGQSPELLIYWASTRESGVPVRFTGSGSGTDFTLTISSVQAEDLAVYYCKQSYYLRTFGGGTKLEVK
7050 MFI	32600 MFI	29000 RLU	34100 RLU	1.74 OD450	2.01 OD450	6-35.22 murine hybridoma antibody (supernatant) (antibody, V domains shown, Tested as hybridoma supernatant) VH: EVKLVESGGGLVQPGASLSLSCAASGFTFTDYYMSWVRQPPGKALEWLAMSRNKAKGHTIEYSSSVKGRFTISRDNSQSILYLQMNALRAEDSATYYCARDTYESYDGYFDVWGAGTTVIVSS VL: DIVMSQSPSSLAVSAGETVTMSCKSSQSLFNSRSRKNYLAWYQQKPGQTPKLLIYWASIRESGVPDRFTGSGSGTDFTLTISSVQAEDLAVYYCKQSYYLYTFGSGTKLEIK
